From publication PMC11482875

Target: miniTRIM37 RBhcc (human | T. thermophilus) (UniProt O94972)
Experiment: SEC-MALS

stoichiometry N: 2
Substance: miniTRIM37 RBhcc (from UniProt O94972 1-158; O94972 214-254)
